According to the supplement of paper PMC11246515:
± gives the standard deviation of the averaged measurements.

Test: total protein half-life in vivo (active degradation + dilution); higher = more stable protein
[1] = E. coli NCM3722 delta-clpP delta-lon delta-hslV, growth: N-lim chemostat, doubling time 6 h
[2] = E. coli NCM3722 delta-clpP, growth: N-lim chemostat, doubling time 6 h
[3] = E. coli NCM3722 delta-hslV, growth: N-lim chemostat, doubling time 6 h
[4] = E. coli NCM3722 delta-lon, growth: N-lim chemostat, doubling time 6 h
[5] = E. coli NCM3722 delta-smpB, growth: N-lim chemostat, doubling time 6 h
[6] = wild type E. coli NCM3722, growth: C-lim chemostat, doubling time 3 h
[7] = wild type E. coli NCM3722, growth: C-lim chemostat, doubling time 6 h
[8] = wild type E. coli NCM3722, growth: C-lim chemostat, doubling time 12 h
[9] = wild type E. coli NCM3722, growth: N-lim chemostat, doubling time 6 h
[10] = wild type E. coli NCM3722, growth: N-lim chemostat, doubling time 12 h
[11] = wild type E. coli NCM3722, growth: P-lim chemostat, doubling time 6 h
[12] = wild type E. coli NCM3722, growth: P-lim chemostat, doubling time 12 h

Sequence | total protein half-life in vivo [1] [h] | total protein half-life in vivo [2] [h] | total protein half-life in vivo [3] [h] | total protein half-life in vivo [4] [h] | total protein half-life in vivo [5] [h] | total protein half-life in vivo [6] [h] | total protein half-life in vivo [7] [h] | total protein half-life in vivo [8] [h] | total protein half-life in vivo [9] [h] | total protein half-life in vivo [10] [h] | total protein half-life in vivo [11] [h] | total protein half-life in vivo [12] [h]
MTINDSAISEQGMCEEEQVARIAWFYYHDGLTQSEISDRLGLTRLKVSRLLEKGHQSGIIRVQINSRFEGCLEYETQLRRQFSLQHVRVIPGLADADVGGRLGIGAAHMLMSLLQPQQMLAIGFGEATMNTLQRLSGFISSQQIRLVTLSGGVGSYMTGIGQLNAACSVNIIPAPLRASSADIARTLKNENCVKDVLLAAQAADVAIVGIGAVSQQDDATIIRSGYISQGEQLMIGRKGAVGDILGYFFDAKGDVVTNIKIHNELIGLPLSALKTIPVRVGVAGGENKAEAIAAAMKGGYINALVTDQDTAAAILRS | 5.64 ± 1.1 | 5.69 ± 0.67 | 4.76 ± 0.47 | 4.58 ± 0.45 | 4.6 ± 0.058 | 2.88 ± 0.2 | 4.551 ± 0.016 | 7.78 | 4.64 ± 0.19 | 8.2 ± 0.58 | 5.08 | –
MTIRSYKNLNLVRANIETESRQFIENKNYSIQSIGPMPGSRAGLRVVFTRPGVNLATVDIFYNGDGSTTIQYLTGANRSLGQELADHLFETINPAEFEQVNMVLQGFVETSVLPVLELSADESHIEFREHSRNAHTVVWKIISTSYQDELTVSLHITTGKLQIQGRPLSCYRVFTFNLAALLDLQGLEKVLIRQEDGKANIVQQEVARTYLQTVMADAYPHLHVTAEKLLVSGLCVKLAAPDLPDYCMLLYPELRTIEGVLKSKMSGLGMPVQQPAGFGTYFDKPAAHYILKPQFAATLRPEQINIISTAYTFFNVERHSLFHMETVVDASRMISDMARLMGKATRAWGIIKDLYIV | 5.71 | – | 1.859 ± 0.0024 | 1.2 | 0.954 | 1.22 | – | 3.37 | 1.41 | 4.02 ± 2.5 | 1.17 | 3.31 ± 1.4
MTITKLAWRDLVPDTDSYQEIFAQPHLIDENDPLFSDTQPRLQFALEQLLHTRASSSFMLAKAPEESEYLNLIANAARTLQSDAGQLVGGHYEVSGHSIRLRHAVSADDNFATLTQVVAADWVEAEQLFGCLRQFNGDITLQPGLVHQANGGILIISLRTLLAQPLLWMRLKNIVNRERFDWVAFDESRPLPVSVPSMPLKLKVILVGERESLADFQEMEPELSEQAIYSEFEDTLQIVDAESVTQWCRWVTFTARHNHLPAPGADAWPILIREAARYTGEQETLPLSPQWILRQCKEVASLCDGDTFSGEQLNLMLQQREWREGFLAERMQDEILQEQILIETEGERIGQINALSVIEFPGHPRAFGEPSRISCVVHIGDGEFTDIERKAELGGNIHAKGMMIMQAFLMSELQLEQQIPFSASLTFEQSYSEVDGDSASMAELCALISALADVPVNQSIAITGSVDQFGRAQPVGGLNEKIEGFFAICQQRELTGKQGVIIPTANVRHLSLHSELVKAVEEGKFTIWAVDDVTDALPLLLNLVWDGEGQTTLMQTIQERIAQASQQEGRHRFPWPLRWLNWFIPN | 6.81 ± 0.57 | 6.24 ± 0.11 | 7.24 ± 1.1 | 6 ± 0.53 | 6.58 ± 0.43 | 3.017 ± 0.024 | 5.99 ± 0.54 | 9.75 ± 2.2 | 6.17 ± 0.21 | 13.7 ± 1.1 | 6.4 ± 0.075 | 12.6 ± 1.4
MTITPATHAISINPATGEQLSVLPWAGADDIENALQLAAAGFRDWRETNIDYRAEKLRDIGKALRARSEEMAQMITREMGKPINQARAEVAKSANLCDWYAEHGPAMLKAEPTLVENQQAVIEYRPLGTILAIMPWNFPLWQVMRGAVPIILAGNGYLLKHAPNVMGCAQLIAQVFKDAGIPQGVYGWLNADNDGVSQMIKDSRIAAVTVTGSVRAGAAIGAQAGAALKKCVLELGGSDPFIVLNDADLELAVKAAVAGRYQNTGQVCAAAKRFIIEEGIASAFTERFVAAAAALKMGDPRDEENALGPMARFDLRDELHHQVEKTLAQGARLLLGGEKMAGAGNYYPPTVLANVTPEMTAFREEMFGPVAAITIAKDAEHALELANDSEFGLSATIFTTDETQARQMAARLECGGVFINGYCASDARVAFGGVKKSGFGRELSHFGLHEFCNIQTVWKDRI | 3.43 ± 0.22 | 2.38 ± 0.15 | 2.3185 ± 0.00041 | 3.35 ± 0.57 | 2.62 ± 0.24 | 2.87 ± 0.15 | 4.72 ± 0.27 | 7.87 ± 0.72 | 2.56 ± 0.092 | 3.65 ± 0.4 | 5.341 ± 0.022 | 9.54 ± 0.88
MTITPQNLIALLPLLIVGLTVVVVMLSIAWRRNHFLNATLSVIGLNAALVSLWFVGQAGAMDVTPLMRVDGFAMLYTGLVLLASLATCTFAYPWLEGYNDNKDEFYLLVLIAALGGILLANANHLASLFLGIELISLPLFGLVGYAFRQKRSLEASIKYTILSAAASSFLLFGMALVYAQSGDLSFVALGKNLGDGMLNEPLLLAGFGLMIVGLGFKLSLVPFHLWTPDVYQGAPAPVSTFLATASKIAIFGVVMRLFLYAPVGDSEAIRVVLAIIAFASIIFGNLMALSQTNIKRLLGYSSISHLGYLLVALIALQTGEMSMEAVGVYLAGYLFSSLGAFGVVSLMSSPYRGPDADSLFSYRGLFWHRPILAAVMTVMMLSLAGIPMTLGFIGKFYVLAVGVQAHLWWLVGAVVVGSAIGLYYYLRVAVSLYLHAPEQPGRDAPSNWQYSAGGIVVLISALLVLVLGVWPQPLISIVRLAMPLM [P0AFF0] | 7.16 | 6.36 ± 0.41 | 6.09 ± 1.6 | – | 6.08 | 3.46 | – | – | 5.29 | – | – | 11.8 ± 1.4
MTIVRIDAEARWSDVVIHNNTLYYTGVPENLDADAFEQTANTLAQIDAVLEKQGSNKSSILDATIFLADKNDFAAMNKAWDAWVVAGHAPVRCTVQAGLMNPKYKVEIKIVAAV [P0AEB7] | 5.7 ± 0.14 | 5.4 ± 0.17 | 4.95 ± 0.36 | 5.51 ± 0.45 | 5.45 ± 0.95 | 3.02 ± 0.18 | 7.21 ± 0.84 | 13.5 ± 0.29 | 6.27 ± 1.3 | 11.2 ± 0.66 | 6.16 ± 0.16 | 12 ± 2.1
MTKHYDYIAIGGGSGGIASINRAAMYGQKCALIEAKELGGTCVNVGCVPKKVMWHAAQIREAIHMYGPDYGFDTTINKFNWETLIASRTAYIDRIHTSYENVLGKNNVDVIKGFARFVDAKTLEVNGETITADHILIATGGRPSHPDIPGVEYGIDSDGFFALPALPERVAVVGAGYIAVELAGVINGLGAKTHLFVRKHAPLRSFDPMISETLVEVMNAEGPQLHTNAIPKAVVKNTDGSLTLELEDGRSETVDCLIWAIGREPANDNINLEAAGVKTNEKGYIVVDKYQNTNIEGIYAVGDNTGAVELTPVAVAAGRRLSERLFNNKPDEHLDYSNIPTVVFSHPPIGTVGLTEPQAREQYGDDQVKVYKSSFTAMYTAVTTHRQPCRMKLVCVGSEEKIVGIHGIGFGMDEMLQGFAVALKMGATKKDFDNTVAIHPTAAEEFVTMR | 5.12 ± 0.23 | 5.46 ± 0.48 | 4.85 ± 0.18 | 5.81 ± 0.49 | 4.64 ± 0.066 | 3.02 ± 0.17 | 6.27 ± 0.5 | 11.5 ± 0.61 | 5.08 ± 0.14 | 8.33 ± 0.71 | 6.07 ± 0.31 | 13 ± 0.92
MTKKKAHKPGSATIALNKRARHEYFIEEEFEAGLALQGWEVKSLRAGKANISDSYVLLRDGEAFLFGANITPMAVASTHVVCDPTRTRKLLLNQRELDSLYGRVNREGYTVVALSLYWKNAWCKVKIGVAKGKKQHDKRSDIKEREWQVDKARIMKNAHR [P0A832] | 6.34 ± 0.4 | 6.17 ± 1.2 | 6.55 ± 0.43 | – | – | 3.07 ± 0.46 | – | 13.1 ± 0.6 | 5.94 ± 0.25 | – | 5.73 ± 0.2 | 11.7 ± 0.31
MTKKLHIKTWGCQMNEYDSSKMADLLDATHGYQLTDVAEEADVLLLNTCSIREKAQEKVFHQLGRWKLLKEKNPDLIIGVGGCVASQEGEHIRQRAHYVDIIFGPQTLHRLPEMINSVRGDRSPVVDISFPEIEKFDRLPEPRAEGPTAFVSIMEGCNKYCTYCVVPYTRGEEVSRPSDDILFEIAQLAAQGVREVNLLGQNVNAWRGENYDGTTGSFADLLRLVAAIDGIDRIRFTTSHPIEFTDDIIEVYRDTPELVSFLHLPVQSGSDRILNLMGRTHTALEYKAIIRKLRAARPDIQISSDFIVGFPGETTEDFEKTMKLIADVNFDMSYSFIFSARPGTPAADMVDDVPEEEKKQRLYILQERINQQAMAWSRRMLGTTQRILVEGTSRKSIMELSGRTENNRVVNFEGTPDMIGKFVDVEITDVYPNSLRGKVVRTEDEMGLRVAETPESVIARTRKENDLGVGYYQP [P0AEI1] | 4.82 ± 0.13 | 2.04 ± 0.24 | 1.57 ± 0.14 | 2.12 ± 0.29 | 1.54 ± 0.098 | 1.5 ± 0.018 | 2.18 ± 0.19 | 2.62 ± 0.22 | 1.632 ± 0.015 | 2.12 ± 0.027 | 1.97 ± 0.35 | 3.75 ± 0.39
MTKLQLKYRELKIISVIAASENISHAATVLGIAQANVSKYLADFESKVGLKVFDRTTRQLMLTPFGTALLPYINDMLDRNEQLNNFIADYKHEKRGRVTIYAPTGIITYLSKHVIDKIKDIGDITLSLKTCNLERNAFYEGVEFPDDCDVLISYAPPKDESLVASFITQYAVTAYASQRYLEKHPISRPDELEHHSCILIDSMMIDDANIWRFNVAGSKEVRDYRVKGNYVCDNTQSALELARNHLGIVFAPDKSVQSDLQDGTLVPCFQQPYEWWLDLVAIFRKREYQPWRVQYVLDEMLREIRHQLAQSQQLRPEQAAESED | 5.588 ± 0.0059 | 5.07 ± 0.4 | 4.7 ± 0.45 | 4.98 ± 0.36 | 4.54 ± 0.47 | 2.74 ± 0.18 | – | 10.9 ± 2 | 4.15 ± 0.18 | 7.04 ± 0.43 | 6.03 ± 0.88 | 10.1 ± 0.15
